As usually defined, the EC50 is the concentration giving half of the maximal effect. The IC50 is the concentration needed to halve the response being measured. A higher IC50 goes with weaker potency.

15 molecules from patent US20100104555A1 (Scripps Research, published 2010) can be followed below.

B5: maltose binding protein fused-large extracellular loop of CD81 (receptor)
chain: FVNKDQIAKDVKQFYDQALQQAVVDDDANNAKAVVKTFHETLDCCGSSTLTALTTSVLKNNLCPSGSNIISNLFKEDCHQKIDDLFSGK
notes: also called CD81-LEL; MBP-fused CD81-LEL

Test [1] addresses B5. The test is described as follows: capture ELISA, coated CD81-LEL captures Flag-tagged E2 mutant.
Test [2] concerns the target B5. Kind of test: capture ELISA. Background: An ELISA detects its analyte on a solid surface through an enzyme-linked reagent.
For test [3], the target named is B5. The test is described as follows: capture ELISA, coated CD81-LEL, 293T supernatant.
The target in the next test is E2412-574 (hepatitis C virus isolate H77, UniProt P27958 412-574). Kind of test: capture ELISA, coated CD81-LEL, 293T supernatant.
In a further test the target is E2412-589 (hepatitis C virus isolate H77, UniProt P27958 412-588). Kind of test: capture ELISA, coated CD81-LEL, 293T supernatant.
The target in test [4] is vaccinia-expressed E1E2 (isolate HCV-1) (hepatitis C virus genotype 1a, isolate …, UniProt P26664 192-383; P26664 384-746). The test is described as follows: ELISA on lectin-captured E1E2; apparent affinity = half-maximal binding.
The target of test [5] is T1, E1E2 of HCV isolate H77 (hepatitis C virus genotype 1a, isolate …, UniProt P27958 192-383; P27958 384-746). Described as above.
Test [6] has as its target T1, E1E2 of HCV isolate H77. The test is described as follows: cell-based or functional assay.
Test [7] has as its target T1, E1E2 of HCV isolate H77. The test is described as follows: ELISA, mAb inhibits E1E2 (H77) binding to coated CD81-LEL.

B1: E2ΔN5 (other)
chain: QLINTNGSWHINSTALNCNESLNTGWLAGLFYQHKFNSSGCPERLASCGSSGCWHYPPRPCGIVPAKSVCGPVYCFTPSPVVVGTTDRSGAPTYSWGANDTDVFVLNNTRPPLGNWFGCTWMNSTGFTKVCGAPPCVIGGVGNNTLLCPTDCFRKHPEATYSRCGSGPWITPRCMVDYPYRLWHYPCTINYTIFKVRMYVGGVEHRLEAACNLEDYKDDDDK
With B1, the binding result in test [1] is “binds”.

B2: E2412-645 (other)
chain: QLINTNGSWHINSTALNCNESLNTGWLAGLFYQHKFNSSGCPERLASCRRLTDFAQGWGPISYANGSGLDERPYCWHYPPRPCGIVPAKSVCGPVYCFTPSPVVVGTTDRSGAPTYSWGANDTDVFVLNNTRPPLGNWFGCTWMNSTGFTKVCGAPPCVIGGVGNNTLLCPTDCFRKHPEATYSRCGSGPWITPRCMVDYPYRLWHYPCTINYTIFKVRMYVGGVEHRLEAACNLEDYKDDDDK
In the case of B2, the binding result in test [2] is reported as “binds”.

B3: E2412-611 (other)
chain: QLINTNGSWHINSTALNCNESLNTGWLAGLFYQHKFNSSGCPERLASCRRLTDFAQGWGPISYANGSGLDERPYCWHYPPRPCGIVPAKSVCGPVYCFTPSPVVVGTTDRSGAPTYSWGANDTDVFVLNNTRPPLGNWFGCTWMNSTGFTKVCGAPPCVIGGVGNNTLLCPTDCFRKHPEATYSRCGSGPWITPRCMVDYLEDYKDDDDK
For B3, the binding result in [3] is on record as “no binding”.

B4: E2ΔTM (other)
chain: ETHVTGGNAGRTTAGLVGLLTPGAKQNIQLINTNGSWHINSTALNCNESLNTGWLAGLFYQHKFNSSGCPERLASCRRLTDFAQGWGPISYANGSGLDERPYCWHYPPRPCGIVPAKSVCGPVYCFTPSPVVVGTTDRSGAPTYSWGANDTDVFVLNNTRPPLGNWFGCTWMNSTGFTKVCGAPPCVIGGVGNNTLLCPTDCFRKHPEATYSRCGSGPWITPRCMVDYPYRLWHYPCTINYTIFKVRMYVGGVEHRLEAACNWTRGERCDLEDRDRSELSPLLLSTTQWQVLPCSFTTLPALSTGLIHLHQNIVDVQYLYGVGSSIASWAIKWELEDYKDDDDK
Turning to B4, in [2], the binding result is reported as “binds”. As for B5, the binding result with E2412-574 and with E2412-589 was “no binding” in each case.

B6: MAb AR3B (antibody, V domains shown)
VH: LEQSGPEVKKPGSSVKVSCKDSGDTFNEPVTWVRQAPGQGLEWIGGIIPAFGVTKYAQKFQGRVIISADASTATAYLELSSLRSEDTAVYYCAKVGLRGIVMVGGLAMNWLDPWGQGTQVTVSS
VL: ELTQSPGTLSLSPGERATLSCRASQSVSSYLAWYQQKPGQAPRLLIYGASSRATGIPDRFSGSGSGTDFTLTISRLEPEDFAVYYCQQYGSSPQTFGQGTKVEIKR
notes: also called IgG1 AR3B
On to B6, for which the EC50 in [4] was found to be 2 nM.

B7: MAb AR1B (antibody, V domains shown)
VH: LESGGGLVQPGGSLRLSCEASGYYFSSFAMSWVRQTPGKGLEWVSSIAGGTLGRTSYRDSVKGRFTISRDNSKNTVFLHMNNLRPEDTAVYYCAKDPLLFAGGPNWFDHWGQGTLVTVSS
VL: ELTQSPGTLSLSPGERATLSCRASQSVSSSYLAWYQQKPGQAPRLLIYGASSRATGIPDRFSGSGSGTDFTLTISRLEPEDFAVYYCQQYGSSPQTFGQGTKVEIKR
notes: also called IgG1 AR1B
For the molecule B7, the EC50 in [4] amounted to 0.4 nM; with E1E2 of HCV isolate H77 [5], 0.6 nM. Also, in the test with E1E2 of HCV isolate H77 [6], the “Neutralizing activity (IC50), HCVpp” value was more than 50 µg/mL.

B8: E2492-645 (other)
chain: RPCGIVPAKSVCGPVYCFTPSPVVVGTTDRSGAPTYSWGANDTDVFVLNNTRPPLGNWFGCTWMNSTGFTKVCGAPPCVIGGVGNNTLLCPTDCFRKHPEATYSRCGSGPWITPRCMVDYPYRLWHYPCTINYTIFKVRMYVGGVEHRLEAACNLEDYKDDDDK
As for B8, the binding result in test [3] is on record as “no binding”.

B9: E2456-645 (other)
chain: LASCRRLTDFAQGWGPISYANGSGLDERPYCWHYPPRPCGIVPAKSVCGPVYCFTPSPVVVGTTDRSGAPTYSWGANDTDVFVLNNTRPPLGNWFGCTWMNSTGFTKVCGAPPCVIGGVGNNTLLCPTDCFRKHPEATYSRCGSGPWITPRCMVDYPYRLWHYPCTINYTIFKVRMYVGGVEHRLEAACNLEDYKDDDDK
As for B9, the binding result in [3] is given as “no binding”.

B10: E2ΔN9 (other)
chain: QLINTNGSWHINSTALNCNESLNTGWLAGLFYQHKFNSSGCPERLASCRRLTDFAQGWGPISYANGSGLDERPYCWHYPPRPCGIVPAKSVCGPVYCFTPSPVVVGTTDRSGAPTYSWGANDTDVFVLNNTRPPLGNWFGCTWMNSTGFTKVCGAPPCGSSGCPTDCFRKHPEATYSRCGSGPWITPRCMVDYPYRLWHYPCTINYTIFKVRMYVGGVEHRLEAACNLEDYKDDDDK
Take B10: the binding result in [1] is “binds”.

B11: MAb AR2A (antibody, V domains shown)
VH: LEQSGAEMKKPGASLKVSCKTSGYTFDDYGVTWVRQAPGQGLEWMGWISAYSGNTFYARKFQGRVTMTTDPSTRTAYMELRSLRSDDTAVYFCARDRGLAINGVVFPYFGLDVWGQGTTVTVSS
VL: ELTQSPVSLPVTPGEPASISCRSSQSLLHSNGNHYLDWYLQKPGQSPQLLMYLGSNRASGVPDRFSGSGSGTDFTLKISRVEAEDVGVYYCMQGLQTPWTFGQGTKVEIKR
notes: also called IgG1 AR2A
As for B11, the results for the EC50 (in test [4]; with E1E2 of HCV isolate H77 [5]) were 3.1 nM and 1.6 nM, respectively. Moreover, the “Neutralizing activity (IC50), HCVpp” value with E1E2 of HCV isolate H77 [6] is 1 µg/mL.

B12: E2ΔN5N9 (other)
chain: QLINTNGSWHINSTALNCNESLNTGWLAGLFYQHKFNSSGCPERLASCGSSGCWHYPPRPCGIVPAKSVCGPVYCFTPSPVVVGTTDRSGAPTYSWGANDTDVFVLNNTRPPLGNWFGCTWMNSTGFTKVCGAPPCGSSGCPTDCFRKHPEATYSRCGSGPWITPRCMVDYPYRLWHYPCTINYTIFKVRMYVGGVEHRLEAACNLEDYKDDDDK
On to B12, for which, in test [1], the binding result was “binds”.

B13: MAb AR3D (antibody, V domains shown)
VH: LEQSGAEVKKPGSSVKVSCKASGDTFRSYVITWARQAPGQGLEWMGAIIPFFGTTNLAQKFQGRVTITADESTKTVYMDLSSLRSDDTAVYYCAKAGDLSVGGVLAGGVPHLRHFDPWGQGTLVTVSS
VL: ELTQSPGTLSLSPGERATLSCRAGQTVASNSLAWYQHKPGQAPRLLIYGASIRASGIPDRFSGSGSGTDFTLTISRLEPEDFAVYYCQQYGLSPSTFGQGTRLEIKR
notes: also called IgG1 AR3D
For B13, in [4], the EC50 was found to be 2.4 nM.

B14: E2412-661 (other)
chain: QLINTNGSWHINSTALNCNESLNTGWLAGLFYQHKFNSSGCPERLASCRRLTDFAQGWGPISYANGSGLDERPYCWHYPPRPCGIVPAKSVCGPVYCFTPSPVVVGTTDRSGAPTYSWGANDTDVFVLNNTRPPLGNWFGCTWMNSTGFTKVCGAPPCVIGGVGNNTLLCPTDCFRKHPEATYSRCGSGPWITPRCMVDYPYRLWHYPCTINYTIFKVRMYVGGVEHRLEAACNWTRGERCDLEDRDRSELEDYKDDDDK
Take B14: the binding result in [2] was “binds”.

B15: MAb AR1A (antibody, V domains shown)
VH: LEQSGAEVKKPGSSVKVSCRASGSPYSSYTITWVRQAPGQGLEWMGGIILMTGKANYAQKFQGRVTITADRATATAYMEMSSLTSDDTAIYYCARDPYVYAGDDVRSLSRWGQGTPVIVSS
VL: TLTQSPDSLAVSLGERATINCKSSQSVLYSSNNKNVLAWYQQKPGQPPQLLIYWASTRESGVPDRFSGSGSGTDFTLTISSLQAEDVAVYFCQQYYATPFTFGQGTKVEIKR
notes: also called IgG1 AR1A
Take B15: the EC50 in test [4] was found to be 2.6 nM; with E1E2 of HCV isolate H77 [5] it was 3.8 nM. This molecule also came in with an IC50 with E1E2 of HCV isolate H77 [7] of 5.7 nM. The “Neutralizing activity (IC50), HCVpp” value with E1E2 of HCV isolate H77 [6] is more than 50 µg/mL.
